Assay results from article PMC11467860.
Where two headings read alike, the source gives them in different places.

Tests used:
Assay in all cases: EMSA
Dicer S839A = Dicer S839A (Homo sapiens, UniProt Q9UPY3 1-1922, S839A)
Dicer S839F [1] = molecular target: T1, Dicer S839F (Homo sapiens, UniProt Q9UPY3 1-1922, S839F)
Dicer S839F [2] = molecular target: T1, Dicer S839F; remark: listed apart in the source

T1 sequence (Q9UPY3 whole entry S839F): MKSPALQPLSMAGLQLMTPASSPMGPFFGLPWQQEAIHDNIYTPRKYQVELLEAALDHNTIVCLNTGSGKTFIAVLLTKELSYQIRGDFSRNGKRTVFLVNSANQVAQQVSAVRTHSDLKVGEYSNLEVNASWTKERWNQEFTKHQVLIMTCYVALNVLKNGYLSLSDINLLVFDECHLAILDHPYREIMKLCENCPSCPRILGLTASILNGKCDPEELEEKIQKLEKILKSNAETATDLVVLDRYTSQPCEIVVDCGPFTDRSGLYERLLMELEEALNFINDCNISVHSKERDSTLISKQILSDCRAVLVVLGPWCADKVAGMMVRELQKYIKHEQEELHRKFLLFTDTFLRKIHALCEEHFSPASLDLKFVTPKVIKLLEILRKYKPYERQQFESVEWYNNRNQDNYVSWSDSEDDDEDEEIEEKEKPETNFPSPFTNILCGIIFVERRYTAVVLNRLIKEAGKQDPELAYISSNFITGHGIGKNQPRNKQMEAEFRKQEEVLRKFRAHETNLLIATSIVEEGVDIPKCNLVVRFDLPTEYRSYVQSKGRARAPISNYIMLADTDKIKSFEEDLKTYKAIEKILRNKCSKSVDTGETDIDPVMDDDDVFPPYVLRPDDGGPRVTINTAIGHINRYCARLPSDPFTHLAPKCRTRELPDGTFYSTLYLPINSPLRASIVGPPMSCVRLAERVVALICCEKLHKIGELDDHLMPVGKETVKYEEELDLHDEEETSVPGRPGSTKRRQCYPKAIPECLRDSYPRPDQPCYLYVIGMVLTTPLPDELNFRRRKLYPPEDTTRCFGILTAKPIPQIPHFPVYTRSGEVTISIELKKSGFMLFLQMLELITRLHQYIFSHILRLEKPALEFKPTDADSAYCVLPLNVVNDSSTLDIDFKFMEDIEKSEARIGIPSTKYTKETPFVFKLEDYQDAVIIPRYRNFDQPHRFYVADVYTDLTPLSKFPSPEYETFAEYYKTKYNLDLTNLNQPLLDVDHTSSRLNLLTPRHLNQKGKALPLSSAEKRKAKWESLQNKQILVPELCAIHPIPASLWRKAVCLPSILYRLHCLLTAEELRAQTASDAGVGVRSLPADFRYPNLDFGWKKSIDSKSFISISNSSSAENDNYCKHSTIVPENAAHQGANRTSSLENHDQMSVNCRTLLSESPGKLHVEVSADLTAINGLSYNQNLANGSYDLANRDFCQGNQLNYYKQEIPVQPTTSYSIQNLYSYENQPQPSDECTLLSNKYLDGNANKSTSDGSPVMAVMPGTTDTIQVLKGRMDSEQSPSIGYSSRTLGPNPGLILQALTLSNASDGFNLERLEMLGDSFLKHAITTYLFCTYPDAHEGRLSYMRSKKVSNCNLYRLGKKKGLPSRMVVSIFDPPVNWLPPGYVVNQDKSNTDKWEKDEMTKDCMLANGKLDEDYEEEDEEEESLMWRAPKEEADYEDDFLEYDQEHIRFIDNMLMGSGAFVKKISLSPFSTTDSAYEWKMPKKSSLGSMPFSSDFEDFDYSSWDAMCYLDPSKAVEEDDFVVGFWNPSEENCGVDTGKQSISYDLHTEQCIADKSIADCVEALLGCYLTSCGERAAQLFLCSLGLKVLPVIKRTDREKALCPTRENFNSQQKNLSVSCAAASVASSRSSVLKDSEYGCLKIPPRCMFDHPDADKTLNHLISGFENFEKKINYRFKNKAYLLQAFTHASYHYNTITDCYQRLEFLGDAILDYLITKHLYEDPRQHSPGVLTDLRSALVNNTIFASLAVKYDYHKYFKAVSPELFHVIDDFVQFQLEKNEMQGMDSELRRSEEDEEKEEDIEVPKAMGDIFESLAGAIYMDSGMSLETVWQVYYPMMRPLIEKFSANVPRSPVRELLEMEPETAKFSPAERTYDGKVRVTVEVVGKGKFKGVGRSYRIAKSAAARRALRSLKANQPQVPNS
Sequence of Dicer S839A (Q9UPY3 whole entry S839A): as the sequence (Q9UPY3 whole entry S839F) above, with F839A counted along it

Binder | binding result (Dicer S839A) | binding result (Dicer S839F [1]) | binding result (Dicer S839F [2])
pre-miR-21 (structured_RNA, 5' phosphate) RNA: UAGCUUAUCAGACUGAUGUUGACUGUUGAAUCUCAUGGCAACACCAGUCGAUGGGCUGUC | binds | no binding | 
snord37 (structured_RNA) RNA: AUUCGUGAUGACUGAUCAUUUCUUCACUUUGACCAGAUGUCUACUGAAGAAAGCCUGCGUCUGAGG |  |  | binds
